Results taken from the MegaScale stability set (Tsuboyama et al. 2023).

B1: r4_43_TrROS_Hall (parent)
chain: DLVTIKVPLENLEEIKKAAEKAGFKIVSISYDKENKEVTIVIEKKK
B2: r11_951_TrROS_Hall (parent)
chain: KKKYVIKVYFEDTGKEVEIEAESKEEALEAAKRLAEELGLKIKKVEIYP

Variants of: B1
Assay: folding stability dG (cDNA display proteolysis); higher = more stable
Settings: PBS, room temperature

Folding stability dG [kcal/mol], by site and new letter:
V41: E 3.48, C 3.33, G 3.4, R 3.47, K 3.47, I 3.64, M 3.48, T 3.42, Y 3.71, H 3.26, L 3.91, A 3.49, W 4.13, N 3.34, D 2.77, F 3.76, Q 3.5, S 3.51
K44: P 3.55, V 3.92, R 3.83, H 3.73, T 4.11, I 3.93, Q 3.52, D 3.54, Y 4.68, E 3.58, W 4.25, C 3.76, F 4.48, G 3.73, N 3.53, A 3.79, M 3.96, S 3.49, L 3.96
I42: R 2.38, T 3.03, M 3.85, G 2.97, Y 4.47, Q 2.84, N 0.933, H 2.83, L 3.79, C 3.24, K 2.34, S 2.75, A 3.53, F 4.17, D 0.038, P -0.342, W 4.19, E 1.39, V 3.46
T39: S 3.54, L 3.36, R 3.57, I 3.66, M 3.52, K 3.42, G 2.85, P -0.044, Q 3.36, N 3.14, V 3.56, W 4.01, H 3.47, Y 3.83
E43: N 3.78, L 4.39, A 3.71, S 3.51, W 4.7, K 3.36, T 3.92, I 3.54, Q 3.64, D 3.9, V 3.63, G 3.26, R 3.76, P 2.34, F 4.59, M 4.04, H 3.88, Y 4.32, C 4.02
K46: F 4.31, G 3.38, D 3.55, Q 3.86, P 3.71, N 3.49, T 3.82, S 3.72, H 4.17, E 3.84, V 3.93, M 3.55, Y 4.33, A 3.52, C 3.83, I 3.61, L 3.65, W 4.4, R 3.68
I40: F 3.93, L 3.98, Q 0.343, M 3.77, V 3.81, W 1.82, A 2.62, Y 2.75, C 2.81, T 1.73, S 0.271, N -0.494, G 0.285, H -0.04
K45: D 3.94, E 3.5, Y 4.47, V 4.13, N 3.84, A 3.92, C 3.87, T 3.99, M 3.93, L 3.95, F 4.41, S 3.72, R 3.94, Q 3.73, P 3.64, G 3.87, I 3.87, H 3.86, W 4.49

Variants of: B2
Assay: as above
Settings: PBS, room temperature

Folding stability dG [kcal/mol], by site and new letter:
I6: V 4.06, W 4.67, Y 4.79, Q 1.59, H 2.82, E 1.26, S 3.42, N 1.53, M 4.46, G 3.82, F 4.55, R 0.95, D 0.044, C 3.63, P -0.197, T 3.59, L 4.34, A 4.12, K 0.69
K2: C 4.46, A 4.43, Q 4.34, W 4.66, V 4.34, M 4.59, H 4.51, R 4.48, D 3.85, E 4.29, I 4.36, S 4.52, P 3.73, L 4.61, G 4.29, Y 4.42, N 4.24, T 4.46, F 4.57
K1: H 4.46, T 4.5, Q 4.6, G 4.64, I 4.6, V 4.51, E 4.16, A 4.25, C 4.57, S 4.25, L 4.52, N 4.47, R 4.71, F 4.54, P 4.64, D 4.22, Y 4.52, M 4.8, W 4.38
E11: D 4.5, A 4.58, C 4.63
K3: S 4.52, D 3.86, I 4.27, N 4.11, F 4.64, W 4.83, Q 4.28, G 4.03, M 4.59, P 4.49, T 4.4, E 3.9, H 4.39, R 4.26, V 4.24, A 4.46, C 4.24, L 4.63, Y 4.54
Y4: N 2.92, R 2.98, C 3.85, S 3.36, M 3.98, H 3.58, Q 3.55, I 4.29, D 2.33, K 2.9, L 3.93, V 4.58, T 3.74, A 3.08, G 2.47, E 2.73, F 4.2, P 2.44, W 4.31
K7: A 3.95, I 4.11, C 3.91, F 4.21, S 3.73, V 4.1, L 4.09, W 4.45, M 4.1, P 1.45, N 3.9, D 2.75, H 4.19, Q 3.75, T 4.07, G 3.32, E 3.12, R 4.64, Y 4.13
V5: H 4.32, R 4.66, Y 4.37, E 3.42, N 4.12, A 4.35, D 3, W 4.62, K 4.63, C 3.83, M 4.31, P 2.38, Q 4.27, L 4.13, I 4.29, G 3.95, T 4.47, F 4.42, S 4.3
V8: G 2.51, I 4.47, P 0.881, A 3.59, D 1.26, E 0.978, K 0.16, N 1.36, S 1.87, M 4.28, T 2.91, L 4.25, F 4.61, H 1.38, C 3.91, Y 4.22, W 4.03, Q 1.52, R 0.173
Y9: M 4.4, D 3.41, V 4.3, P 1.42, G 3.74, F 4.25, K 3.98, A 3.91, Q 4.09, S 4.16, R 4.14, H 4.26, E 4.28, L 4.26, T 4.22, N 3.87, W 4.86, I 4.35, C 3.95
F10: I 3.28, E 2.52, A 2.98, H 2.56, Q 2.23, R 1.98, G 3.16, T 3.32, C 3.67, L 3.94, K 1.65, W 4.44, N 2.58, Y 3.94, P 2.07, D 2.86, V 2.98, S 3.13, M 3.73
